Experimental data from patent publication US20200206198A1, “CFTR CHANNEL ACTIVATOR FOR USE IN THE TREATMENT AND/OR PREVENTION OF GLUTEN SENSITIVITY CONDITIONS” (priority 2017, published 2020).

Molecular target: T1, CFTR (Homo sapiens, UniProt P13569)
T1 construct: Immunoprecipitations of endogenous proteins were performed on 500 μg of lysates from Caco-2 cells; host or cells: Caco-2, T84
Assay: CFTR channel function in intestinal epithelial cells (forskolin-induced Isc in Ussing chambers; SPQ iodide efflux)
Assay type: cell-based
Protocol: Human colon adenocarcinoma-derived Caco-2 and T84 cells (Barone, M. V. et al. 2014; Luciani, A. et al. 2010) were obtained from the ATCC. Cells were maintained in T25 flask in Modified Eagle Medium (MEM) for Caco-2, or Ham's F12+DMEM (1:1) for T84, supplemented with 10% fetal bovine serum (FBS), 2 mM Glutamine+1% Non Essential Amino Acids (NEAA) and the antibiotics penicillin\streptomycin (100 units/ml) (all reagents from Lonza). Caco-2 cells were grown in Transwells (Corning, 3470 or 3460) under the normal condition. Briefly, 8×10^4 or 5×10^5 cells were seeded in 6.5-mm diameter or 12-mm diameter, respectively, and grown until the RT reached 800 to 1,200 Ω·cm^2. Transwells with a pore size of 0.4 μm were used. Medium in both the apical and baso lateral chambers was changed every other day. Cells were treated with 20 μg/ml of either with the α-gliadin peptide comprising the P31-43 amino acid sequence of α-gliadin LGQQQPFPPQQPY (SEQ ID 1) (below referred to as P31-43), which is known to induce an enterocyte stress response (Meresse, B. et al.2009; Barone, M. V. et al. 2014; Luciani, A. et al. 2010), the T-cell activating α-gliadin peptide comprising the P57-68 amino acid sequence of α-gliadin (QLQPFPQPQLPY SEQ ID 2)) (below referred to as P57-68) (Maiuri, L., et al. 2003; Meresse, B. et al.2009; 30 Barone, M. V. et al. 2014), or the scrambled GAVAAVGVVAGA (SEQ ID 3) control peptide (below referred to as PGAV), or with different modified P31-43, either biotin-tagged or not, for different time points (from 1 h short challenge up to 24 h). Cells were also treated with 50 or 100 5 μg/ml of P57-68 or PGAV peptides for 3 h.
Caco-2 or T84 cells were also treated with: CFTR potentiators VX-770 (Ivacaftor) (10 μM) or VX-532 (20 μM) (Selleck chemicals) or Genistein (10 μM) (Verkman, A. S. et al. 2005; Jih, K. Y. et al. 2013) (Sigma-Aldrich) or in presence or absence of CFTR inhibitor172 (CFTRinh172, 20 μM).
Human colon adenocarcinoma-derived Caco-2 and T84 cells were obtained from the ATCC. Cells were maintained in T25 flask in Modified Eagle Medium (MEM) for Caco-2, or Ham's F12+DMEM (1:1) for T84, supplemented with 10% fetal bovine serum (FBS), 2 mM Glutamine+1% Non Essential Amino Acids (NEAA) and the antibiotics penicillin\streptomycin (100 units/ml) (all reagents from Lonza) (Luciani, A., et al. 2010. Cells were grown in Transwells (Corning, 3470 or 3460) under the normal condition (Luciani, A., et al. 2012). Briefly, 8×10^4 or 5×10^5 cells were seeded in 6.5-mm diameter or 12-mm diameter, respectively, and grown until the RT reached 800 to 1,200 Ω·cm2. Transwells with a pore size of 0.4 μm were used. Medium in both the apical and basolateral chambers was changed every other day. […]

T1 sequence (P13569 whole entry): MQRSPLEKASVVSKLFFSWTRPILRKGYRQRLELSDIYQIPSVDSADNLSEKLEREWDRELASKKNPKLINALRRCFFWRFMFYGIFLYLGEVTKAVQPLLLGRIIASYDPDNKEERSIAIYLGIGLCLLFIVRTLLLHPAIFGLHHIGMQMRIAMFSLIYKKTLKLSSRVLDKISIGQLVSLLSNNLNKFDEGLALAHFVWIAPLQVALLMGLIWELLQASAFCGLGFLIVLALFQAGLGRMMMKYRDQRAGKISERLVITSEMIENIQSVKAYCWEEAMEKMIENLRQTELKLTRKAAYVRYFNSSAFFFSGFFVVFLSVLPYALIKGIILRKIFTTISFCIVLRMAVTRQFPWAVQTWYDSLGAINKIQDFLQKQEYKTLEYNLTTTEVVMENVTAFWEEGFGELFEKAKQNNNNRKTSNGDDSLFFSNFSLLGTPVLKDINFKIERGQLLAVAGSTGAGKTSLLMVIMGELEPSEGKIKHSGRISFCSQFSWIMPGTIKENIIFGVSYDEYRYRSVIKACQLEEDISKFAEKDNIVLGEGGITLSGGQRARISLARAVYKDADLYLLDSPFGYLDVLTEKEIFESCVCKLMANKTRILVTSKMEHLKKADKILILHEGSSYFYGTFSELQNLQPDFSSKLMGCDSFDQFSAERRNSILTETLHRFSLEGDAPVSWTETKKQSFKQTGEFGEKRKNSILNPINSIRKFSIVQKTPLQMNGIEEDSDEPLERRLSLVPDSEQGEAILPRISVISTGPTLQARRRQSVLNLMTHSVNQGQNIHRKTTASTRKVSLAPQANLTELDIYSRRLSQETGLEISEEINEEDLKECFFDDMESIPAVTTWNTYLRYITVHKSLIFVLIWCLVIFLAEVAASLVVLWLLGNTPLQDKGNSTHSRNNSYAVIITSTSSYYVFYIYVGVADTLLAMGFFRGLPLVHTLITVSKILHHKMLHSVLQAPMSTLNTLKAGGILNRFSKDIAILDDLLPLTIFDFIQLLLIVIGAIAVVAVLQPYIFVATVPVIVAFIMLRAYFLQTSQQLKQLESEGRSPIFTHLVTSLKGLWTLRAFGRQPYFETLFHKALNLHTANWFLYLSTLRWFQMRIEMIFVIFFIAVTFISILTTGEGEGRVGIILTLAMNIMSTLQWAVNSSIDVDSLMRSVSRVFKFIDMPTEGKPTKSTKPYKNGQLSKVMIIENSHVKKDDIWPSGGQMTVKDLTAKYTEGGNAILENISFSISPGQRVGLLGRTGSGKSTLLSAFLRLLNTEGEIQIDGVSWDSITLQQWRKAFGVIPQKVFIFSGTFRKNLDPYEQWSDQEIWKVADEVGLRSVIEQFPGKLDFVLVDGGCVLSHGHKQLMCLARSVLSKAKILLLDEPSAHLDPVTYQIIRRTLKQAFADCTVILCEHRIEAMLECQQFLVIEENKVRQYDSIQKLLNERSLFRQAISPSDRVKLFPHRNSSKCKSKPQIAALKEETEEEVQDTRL

In the case of “α-gliadin peptide LGQQQPFPPQQPY (SEQ ID 1), induces an enterocyte stress response (P31-43 sequence of alpha-gliadin)”, the “reduction of CFTR channel function in response to forskolin” value (20 μg/ml peptide, intestinal epithelial cells (Caco-2, T84)) is reported as “did reduce CFTR channel function”.
CC(C)(C)c1cc(C(C)(C)C)c(NC(=O)c2c[nH]c3ccccc3c2=O)cc1O [VX-770, N-(2,4-di-tert-butyl-5-hydroxyphenyl)-4-oxo-1,4-dihydroquinoline-3-carboxamide] was tested, and the “prevention of P31-43 induced decrease of CFTR function” value (VX-770 10 μM, VX-532 20 μM, Genistein 10 μM, Caco-2 or T84 cells) was “Prevents P31-43 Induced Inhibition of CFTR Function”.
